Measurements: ChEMBL document CHEMBL3596158, “Exploring the substrate promiscuity of an antibiotic inactivating enzyme” (Medchemcomm, 2014)

T1: Microcin C7 self-immunity protein MccF (Escherichia coli) (UniProt Q47511)
T1 sequence (whole entry): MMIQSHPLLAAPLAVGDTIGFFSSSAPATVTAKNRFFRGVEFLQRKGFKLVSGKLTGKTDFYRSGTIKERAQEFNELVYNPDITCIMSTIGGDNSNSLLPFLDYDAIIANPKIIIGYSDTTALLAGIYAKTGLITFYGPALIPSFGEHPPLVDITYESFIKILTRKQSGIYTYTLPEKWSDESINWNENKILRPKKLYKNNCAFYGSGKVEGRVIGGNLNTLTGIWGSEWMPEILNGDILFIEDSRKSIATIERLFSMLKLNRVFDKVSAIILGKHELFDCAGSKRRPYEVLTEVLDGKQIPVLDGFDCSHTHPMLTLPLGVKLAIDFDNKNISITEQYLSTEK


Tests used:
[1] = molecular target: T1, Microcin C7 self-immunity protein MccF (Escherichia coli); test: Ratio of compound Kcat/Km to ESA Kcat/Km for wild type Escherichia coli MccF expressed in Escherichia coli Rosetta2 (DE3)
[2] = substrate: N[C@@H](CCC(=O)O)C(=O)NS(=O)(=O)OC[C@H]1O[C@@H](n2cnc3c(=O)[nH]cnc32)[C@H](O)[C@@H]1O; test: (§1) Substrate activity at wild type Escherichia coli MccF expressed in Escherichia coli Rosetta2 (DE3) by bovine glutamate dehydrogenase-coupled continuous assay
[3] = substrate: Nc1nc2c(ncn2[C@@H]2O[C@H](COS(=O)(=O)NC(=O)[C@@H](N)CCC(=O)O)[C@@H](O)[C@H]2O)c(=O)[nH]1; test: as §1
[4] = substrate: Nc1ncnc2c1ncn2[C@@H]1O[C@H](COS(=O)(=O)NC(=O)[C@@H](N)CCC(=O)O)[C@@H](O)[C@H]1O; test: as §1

Ratio [1] | Molecule | Km [2] [µM] | kcat [2] [s⁻¹] | Km [3] [µM] | kcat [3] [s⁻¹] | Km [4] [µM] | kcat [4] [s⁻¹]
1.5 | Nc1nc2c(ncn2[C@@H]2O[C@H](COS(=O)(=O)NC(=O)[C@@H](N)CCC(=O)O)[C@@H](O)[C@H]2O)c(=O)[nH]1 |  |  |  |  |  | 
0.6 | N[C@@H](CCC(=O)O)C(=O)NS(=O)(=O)OC[C@H]1O[C@@H](n2cnc3c(=O)[nH]cnc32)[C@H](O)[C@@H]1O |  |  |  |  |  | 
 | Microcin C7 self-immunity protein MccF (Escherichia coli), Q47511 (protein) MMIQSHPLLAAPLAVGDTIGFFSSSAPATVTAKNRFFRGVEFLQRKGFKLVSGKLTGKTDFYRSGTIKERAQEFNELVYNPDITCIMSTIGGDNSNSLLPFLDYDAIIANPKIIIGYSDTTALLAGIYAKTGLITFYGPALIPSFGEHPPLVDITYESFIKILTRKQSGIYTYTLPEKWSDESINWNENKILRPKKLYKNNCAFYGSGKVEGRVIGGNLNTLTGIWGSEWMPEILNGDILFIEDSRKSIATIERLFSMLKLNRVFDKVSAIILGKHELFDCAGSKRRPYEVLTEVLDGKQIPVLDGFDCSHTHPMLTLPLGVKLAIDFDNKNISITEQYLSTEK | 90.9 | 0.635 | 33.4 | 0.582 | 51.6 | 0.583
